The source of these data is article PMC8750214.

A short description of series [1]: immunoblot of total 4-1BB, Jurkat. The settings on record: glycan lost; control: wild type.
A short description of series [2]: flow cytometry of surface 4-1BB, Jurkat. The settings on record: glycan lost; control: wild type.

Take 4-1BB (CD137/TNFRSF9): N138Q: the expression_or_secretion entry in series [1] is listed as “no change”. Also, in series [2], the localisation_or_trafficking result is recorded as “decreases”.
In the case of 4-1BB (CD137/TNFRSF9): N149Q, the localisation_or_trafficking entry in series [2] is reported as “no change”.
